The record followed here is publication PMC10379010, “Short Peptides of Innate Immunity Protein Tag7 (PGLYRP1) Selectively Induce Inhibition or Activation of Tumor Cell Death via TNF Receptor” (International Journal of Molecular Sciences, 2023).

The test has as its target T1, soluble TNFR1 receptor domain (sTNFR1) (UniProt P19438 30-211, fluorescently labeled with Alexa Fluor 633 or Alexa Fluor 488 in the MST only).
T1 construct: TNF receptor TNFR1, soluble extracellular domain (sTNFR1); also called soluble TNFR1 site; source: recombinant, obtained as described in [10], purified
T1 sequence (looked up): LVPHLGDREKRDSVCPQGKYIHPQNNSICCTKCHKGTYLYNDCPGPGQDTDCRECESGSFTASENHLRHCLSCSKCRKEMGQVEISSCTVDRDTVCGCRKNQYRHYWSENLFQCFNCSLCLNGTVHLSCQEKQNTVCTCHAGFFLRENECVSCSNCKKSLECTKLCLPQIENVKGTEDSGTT
The test can be described thus: MST; sTNFR1 or Hsp70 labeled with Alexa Fluor 633 or 488 (200 nM), 20 min in the dark at room temperature with 16 concentrations of each compound; Monolith NT 115, IR laser power 10%; apparent Kd; triplicate. Particulars: both partners purified.

B1: Tag7 protein (PGLYRP1) (natural protein, UniProt O75594 22-196, looked up)
chain: QETEDPACCSPIVPRNEWKALASECAQHLSLPLRYVVVSHTAGSSCNTPASCQQQARNVQHYHMKTLGWCDVGYNFLIGEDGLVYEGRGWNFTGAHSGHLWNPMSIGISFMGNYMDRVPTPQAIRAAQGLLACGVAQGALRSNYVLKGHRDVQRTLSPGNQLYHLIQNWPHYRSP
notes: Tag7 (PGLYRP1), innate immunity protein; also called full-sized Tag7 protein; source: recombinant, obtained as described in [10]
B1: the Kd came to 43.2 nM.

B2: peptide 17.1A (peptide)
peptide: HRDVQRT
notes: Not biotinylated; used in the MST and the cytotoxicity tests; source: synthetic peptide (Fmoc, HPLC purified)
For B2, the Kd is 5.44 nM.
